Data as given in patent US20250163162A1.
One block for each binder: values may come before it.

How the values were obtained:
[1] = biological target: T1, IL10Rα/IL2Rγ receptor (human) (UniProt Q13651); test: cell-based or functional assay
T1 sequence (looked up) 1: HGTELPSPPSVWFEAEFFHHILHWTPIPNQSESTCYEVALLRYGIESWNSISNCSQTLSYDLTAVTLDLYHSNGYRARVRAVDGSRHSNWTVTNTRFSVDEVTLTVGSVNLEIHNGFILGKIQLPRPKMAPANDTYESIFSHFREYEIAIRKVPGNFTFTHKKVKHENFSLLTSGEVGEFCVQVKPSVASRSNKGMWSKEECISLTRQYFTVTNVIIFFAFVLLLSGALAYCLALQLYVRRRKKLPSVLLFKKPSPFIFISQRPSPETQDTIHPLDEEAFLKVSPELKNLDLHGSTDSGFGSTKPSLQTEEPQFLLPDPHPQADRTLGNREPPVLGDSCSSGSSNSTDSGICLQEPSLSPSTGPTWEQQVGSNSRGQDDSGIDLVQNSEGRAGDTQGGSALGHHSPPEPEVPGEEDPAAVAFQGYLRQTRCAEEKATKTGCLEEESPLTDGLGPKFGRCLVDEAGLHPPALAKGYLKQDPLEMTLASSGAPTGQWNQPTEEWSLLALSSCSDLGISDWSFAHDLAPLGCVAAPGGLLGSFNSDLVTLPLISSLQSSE
T1 sequence (looked up) 2: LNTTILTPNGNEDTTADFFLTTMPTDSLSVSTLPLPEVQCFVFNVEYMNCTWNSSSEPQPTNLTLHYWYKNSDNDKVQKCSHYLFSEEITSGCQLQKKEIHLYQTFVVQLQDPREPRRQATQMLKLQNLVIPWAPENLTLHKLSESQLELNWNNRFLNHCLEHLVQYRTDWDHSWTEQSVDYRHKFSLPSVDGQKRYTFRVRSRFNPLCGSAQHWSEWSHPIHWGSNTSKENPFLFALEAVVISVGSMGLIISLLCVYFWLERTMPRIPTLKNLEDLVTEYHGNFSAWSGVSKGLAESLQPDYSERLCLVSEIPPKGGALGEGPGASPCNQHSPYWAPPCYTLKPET

[2] = biological target: T2, IL10Rα and IL2Rγ on human primary cells (CD8 T cells, CD4 T cells, monocytes) (human) (UniProt Q13651); test: cell-based or functional assay
T2 sequence (looked up) 1: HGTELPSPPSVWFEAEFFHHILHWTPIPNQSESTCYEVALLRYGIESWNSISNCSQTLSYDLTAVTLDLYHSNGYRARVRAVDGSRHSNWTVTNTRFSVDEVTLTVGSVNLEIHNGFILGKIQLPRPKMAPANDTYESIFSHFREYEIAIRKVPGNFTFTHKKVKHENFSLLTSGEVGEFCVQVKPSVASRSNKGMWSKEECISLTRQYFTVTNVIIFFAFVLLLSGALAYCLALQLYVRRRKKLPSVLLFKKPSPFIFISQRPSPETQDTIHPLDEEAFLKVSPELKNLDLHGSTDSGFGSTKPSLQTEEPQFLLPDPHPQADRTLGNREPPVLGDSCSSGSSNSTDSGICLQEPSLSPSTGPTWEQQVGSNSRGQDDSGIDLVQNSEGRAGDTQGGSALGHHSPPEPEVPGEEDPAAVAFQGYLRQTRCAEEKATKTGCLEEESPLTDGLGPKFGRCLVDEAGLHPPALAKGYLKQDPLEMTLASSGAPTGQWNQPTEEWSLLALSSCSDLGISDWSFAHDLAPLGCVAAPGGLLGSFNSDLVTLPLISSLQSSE
T2 sequence (looked up) 2: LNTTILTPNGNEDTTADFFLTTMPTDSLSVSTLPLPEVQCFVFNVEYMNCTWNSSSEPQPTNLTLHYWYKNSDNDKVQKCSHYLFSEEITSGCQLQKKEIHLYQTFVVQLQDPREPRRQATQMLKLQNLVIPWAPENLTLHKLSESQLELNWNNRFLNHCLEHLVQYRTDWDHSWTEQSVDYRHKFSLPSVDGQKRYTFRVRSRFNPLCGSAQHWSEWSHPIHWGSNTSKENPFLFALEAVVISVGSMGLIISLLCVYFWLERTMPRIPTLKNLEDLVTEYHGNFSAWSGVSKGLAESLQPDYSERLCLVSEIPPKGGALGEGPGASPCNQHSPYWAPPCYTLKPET

- Granzyme A secretion, CD8 T cells, at 0 µM [1]: 25200 pg/mL
- Granzyme A secretion, CD8 T cells, at 0.0001 µM [1]: 20600 pg/mL
- Granzyme A secretion, CD8 T cells, at 0.001 µM [1]: 25200 pg/mL
- Granzyme A secretion, CD8 T cells, at 0.01 µM [1]: 28100 pg/mL
- Granzyme A secretion, CD8 T cells, at 0.1 µM [1]: 29300 pg/mL
- Granzyme A secretion, CD8 T cells, at 1 µM [1]: 31000 pg/mL
- Granzyme A secretion, CD8 T cells, at 10 µM [1]: 31500 pg/mL
- Granzyme A secretion, CD8 T cells, at 100 µM [1]: 29900 pg/mL
- Granzyme B secretion, CD8 T cells, at 0 µM [1]: 77700 pg/mL
- Granzyme B secretion, CD8 T cells, at 0.0001 µM [1]: 68900 pg/mL
- Granzyme B secretion, CD8 T cells, at 0.001 µM [1]: 70600 pg/mL
- Granzyme B secretion, CD8 T cells, at 0.01 µM [1]: 71000 pg/mL
- Granzyme B secretion, CD8 T cells, at 0.1 µM [1]: 79300 pg/mL
- Granzyme B secretion, CD8 T cells, at 1 µM [1]: 112000 pg/mL
- Granzyme B secretion, CD8 T cells, at 10 µM [1]: 125000 pg/mL
- Granzyme B secretion, CD8 T cells, at 100 µM [1]: 106000 pg/mL
- IFNγ secretion, CD8 T cells, at 0 µM [1]: 122000 pg/mL
- IFNγ secretion, CD8 T cells, at 0.0001 µM [1]: 90100 pg/mL
- IFNγ secretion, CD8 T cells, at 0.001 µM [1]: 125000 pg/mL
- IFNγ secretion, CD8 T cells, at 0.01 µM [1]: 127000 pg/mL
- IFNγ secretion, CD8 T cells, at 0.1 µM [1]: 130000 pg/mL
- IFNγ secretion, CD8 T cells, at 1 µM [1]: 147000 pg/mL
- IFNγ secretion, CD8 T cells, at 10 µM [1]: 154000 pg/mL
- IFNγ secretion, CD8 T cells, at 100 µM [1]: 141000 pg/mL
- IL-1β secretion, LPS treated monocytes, at 0 µM [1]: 6240 pg/mL
- IL-1β secretion, LPS treated monocytes, at 0 µM (LPS only) [1]: 6880 pg/mL
- IL-1β secretion, LPS treated monocytes, at 0.0001 µM [1]: 5890 pg/mL
- IL-1β secretion, LPS treated monocytes, at 0.001 µM [1]: 5390 pg/mL
- IL-1β secretion, LPS treated monocytes, at 0.01 µM [1]: 6020 pg/mL
- IL-1β secretion, LPS treated monocytes, at 0.1 µM [1]: 5240 pg/mL
- IL-1β secretion, LPS treated monocytes, at 1 µM [1]: 5680 pg/mL
- IL-1β secretion, LPS treated monocytes, at 10 µM [1]: 7120 pg/mL
- IL-1β secretion, LPS treated monocytes, at 100 µM [1]: 8780 pg/mL
- IL-9 secretion, CD8 T cells, at 0 µM [1]: 1350 pg/mL
- IL-9 secretion, CD8 T cells, at 0.0001 µM [1]: 1010 pg/mL
- IL-9 secretion, CD8 T cells, at 0.001 µM [1]: 1320 pg/mL
- IL-9 secretion, CD8 T cells, at 0.01 µM [1]: 1390 pg/mL
- IL-9 secretion, CD8 T cells, at 0.1 µM [1]: 1450 pg/mL
- IL-9 secretion, CD8 T cells, at 1 µM [1]: 1590 pg/mL
- IL-9 secretion, CD8 T cells, at 10 µM [1]: 2050 pg/mL
- IL-9 secretion, CD8 T cells, at 100 µM [1]: 1960 pg/mL
B1: hIL10Ra_VHH14 - hIL2Rg_VHH19, linker …, tag his (bispecific antibody, not shown: small tags and cut ends)
chain: QVQLQESGGGSVQAGGSLRLSCGASGYTYSSYCMGWFRQVPGKEREGVAVIDSDGSTSYADSVKGRFTISKDNGKNTLYLQMNSLKPEDTAMYYCAADLGHYRPPCGVLYLGMDYWGKGTQVTVSSGGSGGSGGSGQVQLQESGGGSVQAGGSLRLSCTASGFTFDDREMNWYRQAPGNECELVSTISSDGSTYYADSVKGRFTISQDNAKNTVYLQMDSVKPEDTAVYYCAADFMIAIQAPGAGCWGQGTQVTVSS

- pSTAT3 (MFI) in CD4 T cells at 0.0001 µM [2]: 12600 MFI
- pSTAT3 (MFI) in CD4 T cells at 0.001 µM [2]: 12600 MFI
- pSTAT3 (MFI) in CD4 T cells at 0.01 µM [2]: 12500 MFI
- pSTAT3 (MFI) in CD4 T cells at 0.1 µM [2]: 11300 MFI
- pSTAT3 (MFI) in CD4 T cells at 1 µM [2]: 13600 MFI
- pSTAT3 (MFI) in CD4 T cells at 10 µM [2]: 14800 MFI
- pSTAT3 (MFI) in CD4 T cells at 100 µM [2]: 16000 MFI
- pSTAT3 (MFI) in CD8 T cells at 0.0001 µM [2]: 7540 MFI
- pSTAT3 (MFI) in CD8 T cells at 0.001 µM [2]: 7890 MFI
- pSTAT3 (MFI) in CD8 T cells at 0.01 µM [2]: 7800 MFI
- pSTAT3 (MFI) in CD8 T cells at 0.1 µM [2]: 7330 MFI
- pSTAT3 (MFI) in CD8 T cells at 1 µM [2]: 9320 MFI
- pSTAT3 (MFI) in CD8 T cells at 10 µM [2]: 12300 MFI
- pSTAT3 (MFI) in CD8 T cells at 100 µM [2]: 13200 MFI
- pSTAT3 (MFI) in monocytes at 0.0001 µM [2]: 4370 MFI
- pSTAT3 (MFI) in monocytes at 0.001 µM [2]: 4740 MFI
- pSTAT3 (MFI) in monocytes at 0.01 µM [2]: 4420 MFI
- pSTAT3 (MFI) in monocytes at 0.1 µM [2]: 4810 MFI
- pSTAT3 (MFI) in monocytes at 1 µM [2]: 5690 MFI
- pSTAT3 (MFI) in monocytes at 10 µM [2]: 6690 MFI
- pSTAT3 (MFI) in monocytes at 100 µM [2]: 6030 MFI
B2: hIL10Ra_VHH14-hIL2Rg_VHH19, linker GGGS, tag Fc (Fc fusion, not shown: a dimerising Fc or GST)
chain: QVQLQESGGGSVQAGGSLRLSCGASGYTYSSYCMGWFRQVPGKEREGVAVIDSDGSTSYADSVKGRFTISKDNGKNTLYLQMNSLKPEDTAMYYCAADLGHYRPPCGVLYLGMDYWGKGTQVTVSSGGGSQVQLQESGGGSVQAGGSLRLSCTASGFTFDDREMNWYRQAPGNECELVSTISSDGSTYYADSVKGRFTISQDNAKNTVYLQMDSVKPEDTAVYYCAADFMIAIQAPGAGCWGQGTQVTVSS
